From patent publication US20250257133A1 (ADAGENE PTE, published 2025) come the findings set out here.

In the assay the target is T1, B7H3 on MDA-MB-231 cells (UniProt Q5ZPR3 29-534, limits assumed).
T1 construct: whole, on cells
T1 sequence (looked up): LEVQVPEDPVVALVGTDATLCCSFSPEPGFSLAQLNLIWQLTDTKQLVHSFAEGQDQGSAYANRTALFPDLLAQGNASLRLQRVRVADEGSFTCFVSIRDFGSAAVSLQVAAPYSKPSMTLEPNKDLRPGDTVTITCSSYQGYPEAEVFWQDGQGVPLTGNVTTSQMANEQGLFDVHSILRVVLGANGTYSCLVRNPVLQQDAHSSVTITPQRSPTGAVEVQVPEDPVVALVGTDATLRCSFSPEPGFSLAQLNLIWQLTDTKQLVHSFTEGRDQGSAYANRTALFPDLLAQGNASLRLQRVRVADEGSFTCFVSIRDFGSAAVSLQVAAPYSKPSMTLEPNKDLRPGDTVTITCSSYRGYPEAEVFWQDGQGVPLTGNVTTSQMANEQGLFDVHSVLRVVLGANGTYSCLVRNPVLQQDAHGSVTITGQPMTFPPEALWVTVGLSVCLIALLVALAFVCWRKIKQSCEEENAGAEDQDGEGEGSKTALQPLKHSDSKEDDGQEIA
Nature of the assay: flow cytometry, MDA-MB-231 cells.

Description: An isotype antibody was included as a negative control.
MDA-MB-231 cells were cultured and seeded in 96-well plates at 1.0×10⁵ cells/well and incubated with serially diluted test BsAbs for 60 minutes at 4° C. in 2% FBS/RPMI1640 buffer. Next, the cells were washed twice with DPBS and further incubated with secondary APC-anti-human IgG Fe antibody (1:400 dilution) for 30 minutes at 4° C. Finally, the cells were washed twice with DPBS and resuspended in FACS buffer for flow cytometry analysis. For analysis, the MFI values versus concentrations were plotted using FlowJo 10 software (FlowJo LLC) and the data were further fitted with four-parameter non-linear regression to obtain EC₅₀ values by GraphPad Prism version 7 for Windows.

B1: TY27556 (bispecific antibody, human IgG1, kappa, N297A)
light: DIQLTQSPSSLSASVGDRVTITCRASQSIRKYLNWYQQKPGKAPKLLIYAASTLQSGVPSRFSGSGSGTDFTLTISSLQPEDFATYFCSQGTHVPFTFGQGTKVEIKRTVAAPSVFIFPPSDEQLKSGTASVVCLLNNFYPREAKVQWKVDNALQSGNSQESVTEQDSKDSTYSLSSTLTLSKADYEKHKVYACEVTHQGLSSPVTKSFNRGEC
heavy: EVQLVESGGGLVQPGGSLRLSCAASGFTFSGYGIHWVRQAPGKGLEWIGWISPSGGDTKYAQKFQGRVTISRDNSKNTLYLQLNSLRAEDTAVYYCARGGTVVYFDYWGQGTLVTVSSASTKGPSVFPLAPSSKSTSGGTAALGCLVKDYFPEPVTVSWNSGALTSGVHTFPAVLQSSGLYSLSSVVTVPSSSLGTQTYICNVNHKPSNTKVDKKVEPKSCDKTHTCPPCPAPELLGGPSVFLFPPKPKDTLMISRTPEVTCVVVDVSHEDPEVKFNWYVDGVEVHNAKTKPREEQYASTYRVVSVLTVLHQDWLNGKEYKCKVSNKALPAPIEKTISKAKGQPREPQVYTLPPSRKKLTKNQVKLTCLVKGFYPSDIAVEWESNGQPENNYKTTPPVLDCDGSFFLYSKLTVDKSRWQQGNVFSCSVMHEALHNHYTQKSLSLSPGK
chain: DIQLTQSPSSLSASVGDRVTITCRASQSVDFHGISFLHWYQQKPGKAPKLLIYAASSLQSGVPSRFSGSGSGTDFTLTISSLQPEDFATYYCQQSYRSPRTFGQGTKVEIKGGGGSGGGGSGGGGSGGGGSEVQLVESGGGLVQPGGSLRLSCAASGFSLSTGGVGVSWIRQAPGKGLEWIGEIYHSGSTYYSPSLKSRVTISRDNSKNTLYLQLNSLRAEDTAVYYCARYEYYYYDFDYWGQGTLVTVSSEPKSSDKTHTCPPCPAPELLGGPSVFLFPPKPKDTLMISRTPEVTCVVVDVSHEDPEVKFNWYVDGVEVHNAKTKPREEQYASTYRVVSVLTVLHQDWLNGKEYKCKVSNKALPAPIEKTISKAKGQPREPQVYTDPPSRDELTKNQVSLTCLVDGFYPSDIAVEWESNGQPENCYKTTPPVLDSDGSFFLYSKLTVDKSRWQQGNVFSCSVMHEALHNHYTQDSLSLSPGK
notes: also called anti-B7H3xCD28 BsAb
Take B1: the midpoint of the response, the EC50, lay at 0.0128 µM and the “fold reduction of binding activity against TY21601” value is roughly 28 fold.
